# Assay results published in doi:10.1101/144295, “Human PRDM9 can bind and activate promoters, and other zinc-finger proteins associate with reduced recombination in cis” (bioRxiv, 2017).
# Biological target: the molecule itself
# Assay: co-IP; competitive co-IP: HEK293T transfected with equimolar DNA of three constructs (one bait with one tag, Human and Chimp prey with the other tag); IP against the bait's tag, western blot against the prey's tag; replicated with reversed tags
protein,measurement,value
"full-length human PRDM9 (B allele), C-terminally tagged with HA or V5 (natural protein, 218 synonymous base changes in the zinc finger exon; An HA and a V5 version were made; The C-terminal cassette is linker-TwinStrep-linker-HA/V5-linker-P2A followed by YFP; vector pLENTI CMV/TO Puro DEST (Addgene plasmid # 17293); YFP probably separates at the P2A site (surmised); also called Human-HA; Human-V5; source: HEK293T, transfected (FuGENE-HD), in lysate; not shown: HA or V5, C-terminal, …) not shown",fold more efficiently co-precipitated than the Chimp prey (Human bait),> 2 fold
